Assay results taken from PMC3171469, “Multiple ETS Family Proteins Regulate PF4 Gene Expression by Binding to the Same ETS Binding Site”.

T1: FLI-1 (UniProt Q01543 1-452)
T1 sequence: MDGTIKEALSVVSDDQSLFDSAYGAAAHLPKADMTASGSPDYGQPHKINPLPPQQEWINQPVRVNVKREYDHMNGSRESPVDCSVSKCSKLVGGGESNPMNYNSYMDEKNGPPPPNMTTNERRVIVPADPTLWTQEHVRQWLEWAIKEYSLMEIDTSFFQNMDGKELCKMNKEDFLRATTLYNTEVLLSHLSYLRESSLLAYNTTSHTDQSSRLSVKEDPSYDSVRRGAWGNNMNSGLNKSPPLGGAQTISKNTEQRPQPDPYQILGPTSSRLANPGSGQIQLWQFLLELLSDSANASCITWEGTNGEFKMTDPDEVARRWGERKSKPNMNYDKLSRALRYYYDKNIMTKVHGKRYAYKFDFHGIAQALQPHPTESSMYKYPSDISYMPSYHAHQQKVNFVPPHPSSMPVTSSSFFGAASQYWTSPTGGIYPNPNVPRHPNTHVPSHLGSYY

B1: -51 ETSmut (dsDNA)
DNA 1: CCCGGGTCGGTGGACTGGGCTG
DNA 2: CAGCCCAGTCCACCGACCCGGG
B2: -51 ETS (dsDNA)
DNA 1: CCCGGGTTTCCGGACTGGGCTG
DNA 2: CAGCCCAGTCCGGAAACCCGGG

Columns and labels:
[1] = biological target: T2, ELF-1 (UniProt P32519 1-619); experiment: EMSA; 2 mM HEPES-NaOH pH 7.9, 5 mM KCl, 2% glycerol, 0.01 mM EDTA, 0.25 mM DTT, 0.1 mg/ml BSA, 5 ng/ul poly dI-dC, 50 fmol probe, 40 min at 4 C; 4% native gel, 0.5x TBE; settings: protein: ivt; label: 32P as probe; blunt
[2] = biological target: T1, FLI-1; experiment: as above; settings: protein: ivt; label: 32P as probe; blunt
[3] = biological target: T1, FLI-1; experiment: EMSA; supershift with anti-FLI-1; 2 mM HEPES-NaOH pH 7.9, 5 mM KCl, 2% glycerol, 0.01 mM EDTA, 0.25 mM DTT, 0.1 mg/ml BSA, 5 ng/ul poly dI-dC, 50 fmol probe, 40 min at 4 C; 4% native gel, 0.5x TBE; settings: protein: ivt; label: 32P; blunt
[4] = biological target: T2, ELF-1; experiment: EMSA; anti-ELF-1 inhibits, weak supershift; 2 mM HEPES-NaOH pH 7.9, 5 mM KCl, 2% glycerol, 0.01 mM EDTA, 0.25 mM DTT, 0.1 mg/ml BSA, 5 ng/ul poly dI-dC, 50 fmol probe, 40 min at 4 C; 4% native gel, 0.5x TBE; settings: protein: ivt; label: 32P; blunt

T2 sequence (P32519 whole entry): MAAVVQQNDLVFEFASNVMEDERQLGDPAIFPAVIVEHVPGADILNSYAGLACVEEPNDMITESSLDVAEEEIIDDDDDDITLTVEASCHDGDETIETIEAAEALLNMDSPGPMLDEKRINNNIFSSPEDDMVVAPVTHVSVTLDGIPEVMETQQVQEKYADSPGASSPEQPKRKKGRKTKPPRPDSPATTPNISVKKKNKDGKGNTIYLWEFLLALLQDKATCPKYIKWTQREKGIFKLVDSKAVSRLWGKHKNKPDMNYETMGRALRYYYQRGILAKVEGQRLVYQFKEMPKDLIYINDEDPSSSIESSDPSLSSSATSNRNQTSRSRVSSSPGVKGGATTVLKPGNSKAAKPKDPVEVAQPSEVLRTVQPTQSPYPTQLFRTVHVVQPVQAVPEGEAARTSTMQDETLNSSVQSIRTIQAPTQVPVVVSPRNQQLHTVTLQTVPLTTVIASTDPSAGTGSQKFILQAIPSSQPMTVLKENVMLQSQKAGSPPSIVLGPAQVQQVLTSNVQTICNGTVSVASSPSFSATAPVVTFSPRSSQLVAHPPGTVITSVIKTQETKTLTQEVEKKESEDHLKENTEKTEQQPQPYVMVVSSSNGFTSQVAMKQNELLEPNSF

Row | Binder | binding result [1] | binding result [2] | binding result [3] | binding result [4]
1 | B1 | no binding | no binding | – | –
2 | B2 | – | – | binds | binds
